Assay results: US9944719 (HOFFMAN LA ROCHE, dated 2018)

Experiments:
[1] = target: T1, human IL6 (Peprotech catalogue number 200-06) (human, UniProt P05231 30-212); assay: Biacore, GH6L IgG1 captured on GMCSF immobilised on a CM5 chip (GMCSF bound at the same time), concentration series of IL6 injected; five sensorgrams with fits [contd.]
T1 construct: Bought protein
Description: (§1) The antibody was expressed in human IgG1 format using standard mammalian expression vectors bearing GH6L heavy and light chain and signal peptide cDNAs, by transient transfection of HEK293-6E cells. Expressed IgG was affinity-purified using protein A resin. For Biacore™ analysis, GMCSF (Peprotech catalogue number 300-03) or an anti-light chain capture antibody was immobilized onto a CM5 chip using amine-coupling, resulting in 4000 RU and 12000 RU immobilized GMCSF and anti-light chain capture antibody, respectively.

[2] = target: T1, human IL6 (Peprotech catalogue number …); assay: Biacore, GH6L IgG1 captured on anti-light chain antibody immobilised on a CM5 chip (no GMCSF), concentration series of IL6 injected; five sensorgrams with fits [contd.]
Description: as §1

[3] = target: T2, human VEGF (Peprotech catalogue number 100-20) (human, UniProt P15692-4 27-191); assay: SPR (Biacore), Fab captured by anti-light chain antibody on CM5 chip, VEGF 0-450 nM in flow
T2 construct: Bought protein
Procedure: Antibody libraries were selected against human VEGF (Peprotech catalogue number 100-20) and human IL6 (Peprotech catalogue number 200-06). Of the isolated parental antibody clones, IL6P and VEGFP were combined into the bi-specific antibody clone VH6L. […] To assess the affinities of parental and bi-specific antibodies, Biacore™ analysis was performed in order to analyze the binding behaviour of IL6P, VH6L and VEGFP. For this, an anti-light chain capture antibody was immobilized onto a CM5 chip using amine-coupling, resulting in 12000 RU. Fab fragments were captured to a level of 400-500 RU and a concentration series of IL6 and VEGF, ranging from 0 to 450 nM, was passed over the chip. As depicted in FIG. 7, clone IL6P binds to IL6, but not to VEGF, clone VEGFP binds to VEGF, but not to IL6, and the combined clone VH6L binds to both IL6 and VEGF.

T2 sequence (P15692 other isoform, or with tags, fused parts or gaps limits assumed): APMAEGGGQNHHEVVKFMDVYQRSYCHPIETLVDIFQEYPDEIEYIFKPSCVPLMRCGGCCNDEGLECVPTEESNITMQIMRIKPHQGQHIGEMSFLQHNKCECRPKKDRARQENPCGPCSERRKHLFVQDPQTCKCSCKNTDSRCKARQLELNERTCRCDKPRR

B1: GH6L (bispecific antibody, V domains shown)
VH: WVQLVESGGGLVQPGGSLRLSCAAKGALFSTYAMSWIRQAPGKGLEWIGQISGSGGSTVYNYNVLGRFTISRDNSKNTLYLQMNSLRAEDTAVYYCARDSGYFDIWGQGTLVTVSS
VL: ATQRTQSPSSLSASVGDRVTITCRALWHISSYLAWYQQKPGKAPKLLIYAASWLYWDVPSRFSGSGSGTDFTLTISSLQPEDFATYYCQQYSGLPYTFGQGTKVEIKR
notes: Specific for human GMCSF and human IL6, with two paratopes in one VH-VL pair; also called bi-specific antibody clone GH6L
- koff [1]: 0.00045 s⁻¹
- kon [1]: 24000 M⁻¹ s⁻¹
- koff [2]: 0.0017 s⁻¹
- kon [2]: 57000 M⁻¹ s⁻¹

B2: VH6L (Fab, V domains shown)
VH: YYQLVESGGGLVQPGGSLRLSCAADGFLFSGYAMSWIRQAPGKGLEWIGQISGSGGSTVYNYNVLGRFTISRDNSKNTLYLQMNSLRAEDTAVYYCARDTGYFDHWGQGTLVTVSS
VL: NIQKTQSPSSLSASVGDRVTITCRALWHISSYLAWYQQKPGKAPKLLIYAASHLHYGVPSRFSGSGSGTDFTLTISSLQPEDFATYYCQQYSGLPYTFGQGTKVEIKR
notes: Bi-specific clone (VEGF and IL6, two paratopes in one VH-VL pair) combined from IL6P and VEGFP; Tested as a Fab fragment; also called bi-specific antibody clone VH6L; combined clone VH6L
- Kd [3]: 7.8 nM

B3: VEGFP (Fab, V domains shown)
VH: YYQLVESGGGLVQPGGSLRLSCAADGFLFSGYAMSWIRQAPGKGLEWIGQISGSGGSTYYNDNVLGRFTISRDNSKNTLYLQMNSLRAEDTAVYYCARDTGYFDHWGQGTLVTVSS
VL: DTQMTQSPSSLSASVGDRVTITCRASQSISSYLAWYQQKPGKAPKLLIYAASHLHYGVPSRFSGSGSGTDFTLTISSLQPEDFATYYCQQYSSLPYTFGQGTKVEIKR
notes: Parental anti-VEGF clone, tested as a Fab fragment captured by an anti-light chain antibody in Biacore; the constant parts are human CH1 and CK; also called parental antibody VEGFP; clone VEGFP
- Kd [3]: 11 nM
